In assay [1] the target is Fyn-SH3-SH2 (GST tag cleaved with thrombin). Nature of the assay: high-speed capillary electrophoresis.
For assay [2] the target is unchanged. In words: fluorescence polarisation.
Assay [3] has the same target. In words: NECEEM.

Square brackets hold non-standard residues; d marks the D form. Ends that are not written are not given here. pY = N[C@@H](Cc1ccc(OP(=O)(O)O)cc1)C(=O)O

In the case of fluorescein-EEEEPQ[pY]EEIPIYL [Fluor-Fyn peptide (fluorescein-EEEEPQpYEEIPIYL)], the t1/2 of the complex in assay [1] stood at 48.4 s; in assay [2] it was 53.5 s; in assay [3], 101 s.

The record behind these values is paper PMC2763920.
